This note sets out measurements from the nanobody polyreactivity screen of Harvey et al. (2022).

This data set in a line: yeast display, Sf9 membrane polyspecificity reagent, FACS + sequencing; frameworks hold sequencing errors. In outline:
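A synthetic nanobody library was expressed on Saccharomyces cerevisiae BJ5465 by galactose induction for 36–48 hours. The library was stained for 1 hour at 4 °C with 10% biotinylated, detergent-solubilized Sf9 membrane reagent and enriched with streptavidin microbeads before FACS. Low and high (top ~1%) gates were set on anti-HA fluorescence for expression and streptavidin fluorescence for reagent binding, and each polyreactivity label reflects the gate of origin.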
For the sequence “QVQHVESGGGLVQAGGSLRLSCAASGFIFRRNVMGWYRQAPGKERELVAAISNSGGSTYYADSVKGRFTISRDNAKNTVYLQMNSLKPEDTAVYYCAAVYSYWGRYFEYGYWGQGTKVTVSS”, the “polyreactivity (PSR sort gate)” value is reported as “high polyreactivity”.
For “QVQHVESGGGLVQAGGSLRLSCAASGFIFSKYAMGWYRPAPGKERELVAAITRSGGRTYYADSVKGRFTISRDNAKNTVYLQMNSLKPEDTAVYYCAASWLYFGRDYWGQGTQVTVSS” the value was “high polyreactivity”; for “QVQHVESGGGLVQAGGSLRLSCAASGFIFTAYAMGWYRQAPGKERELVAGIRSGSSTYYADSVKGRFTISRDNAMNTVYLQMNSLKPEDTAVYYCNAEKYNFIYAYEYWGQGTQVTVSS”, “low polyreactivity”; for “QVQHVESGGGLVQAGGSLRLSCAASGFIFWKNAMGWYSQAPGKERELVAAITVTGASTYYADSVKGRFTISRDNAKNTVYLQMNSLKPEDTAVYYCAAKTLSVGYVDPDYGRDYWGQGTQVTVSS”, “low polyreactivity”.
The value for “QVQHVESGGGLVQAGGSLRLSCAASGFIYSTNAMGWYRQAPGKERELVATIRSGGSTNYADSVKGRFTISRDNAKNTVYLQMNCLQPEDTAVYYCNVDDTSWTTSGGRFGQVESDYWGQGTQVTVSS” was “low polyreactivity”; that for “QVQHVESGGGLVQAGGSLRLSCAASGFTFLKNAMGWYRQAPGKERELVAAITSSGGRTYYADSVKGRFTISRDNAKNTVYCQMISLKPEDTAVYYCNKGPLPGYDYWGQGTQVTVSS” was “high polyreactivity”.
Consider “QVQHVESGGGLVQAGGSLRLSCAASGFTFYTYAMGWYRPAPGKERELVAAITSSGGSTYYADSVKGRFTISRDNAKNTVYLQMNSLKPEDTAVYYCNDRVRTQQRWVDYWGQGTQVTVSS”, for which the “polyreactivity (PSR sort gate)” value is recorded as “high polyreactivity”.
For “QVQHVESGGGLVQAGGSLRLSCAASGFTYFSNAMGWYREAPGKERELVASITNDGSTYADSVKGRFTISRDNAKNTVYLQMNRLKAEDTAVYYCAARFPKWRYSPRTGERFDYWGQGTQVTVSS” the value was “low polyreactivity”; for “QVQHVESGGGLVQAGGSLRLSCAASGGIFRFYAMGWYRQAPGKERELVARITSSGGGTYYADSVKGRFTISRDNAKNTVYLQMNSLKPEDTAVSYCAALVYSSYPAGWYDYWGQGTQVTVSS”, “high polyreactivity”; for “QVQHVESGGGLVQAGGSLRLSCAASGGTFVWYAMGWYRQAPGKERELVAAISSSGGRTYYADSVKGRFTISRDNAKNTVYLQMNSLKPEDTAVYYCNAAPYYVLYLLWSSNTYDYWGQGTQVTVSS”, “high polyreactivity”.
The value for “QVQHVESGGGLVQAGGSLRLSCAASGIIFGTNALGWYRQAPGKERELVAYITSGGSTYADSVKGRFTISRDNAKNTVYLQMNSLKPEDTAVYYCAAYVFWAFYEYDYWGQGTQVTVSS” was “low polyreactivity”; that for “QVQHVESGGGLVQAGGSLRLSCAASGIIFTTYAMGWYRQAPGKERELVAAISRSGSTYYADSVKGRFTISRDNAKNTVYLQMNSLKPEDTAVYYCASGRWRWRGYDYYWGQGSQVTVSS” was “high polyreactivity”; that for “QVQHVESGGGLVQAGGSLRLSCAASGITFFYYAMGWYRQAPGKERELVAAISTSGGRTYYADSVKGRFTISRDNAKNTVYLQMNSLKPEDTAVYYCADQSGWLRYYYWGQGTQVTVSS” was “high polyreactivity”.
For “QVQHVESGGGLVQAGGSLRLSCAASGLIFSRYVMGWYRQAPGKERELVAAISRSGGSTYYADSVKGRFTISRDNAKNTVYLQMNSLKPEDTAVYYCNAGRRTGRYGYWGQGTQVTVSS” the value was “high polyreactivity”; for “QVQHVESGGGLVQAGGSLRLSCAASGLTFSYNAMGWYRQAPAKERELVAAIRSGGSTNYADSVKGRFTISRDNAKNTVYLEMYSLKPVDSAVYFCADKSVTGVFRYYYWGQGSQVTVSS”, “low polyreactivity”.
Take “QVQHVESGGGLVQAGGSLRLSCAASGLTFYSYAMGWYRQAPGKERELVATISGGGSTTYADSVKGRFTISRDNAKNTVYLQMNSLKPEDTAVYYCAARSNHYRGWPVPLGYWGQGTQVTVSS”: the “polyreactivity (PSR sort gate)” value is recorded as “high polyreactivity”.
For “QVQHVESGGGLVQAGGSLRLSCAASGRIFDTYTMGWYRAAPGKVRELVAAITSGGSTYYADSVKGRFTISRDNATNTVYLQMNSLKPEDTAVYYCAARYRSIIRYYYWGQGTQVTVSS” the value was “high polyreactivity”; for “QVQHVESGGGLVQAGGSLRLSCAASGRIFHFNAMGWYRQAPGKERELVAAISYRGGSTYYADSVKGRFTISRDNAKNTVYLQMNSLKPEDTAVYYCAAYTRHSARTYYYSYDYWGQGTQVTVSS”, “high polyreactivity”; for “QVQHVESGGGLVQAGGSLRLSCAASGRIFNRYAMVWYRQAPGKERELVAAISASGDNTYYADSVKGRFTISRDNAKNTVYLQMISLKPEDTAVFYCAARYYTYLHFSMYYWGQGTQVTVSS”, “high polyreactivity”.
For the sequence “QVQHVESGGGLVQAGGSLRLSCAASGRIFRDNAMGRNRQAPGKEREVVAAISRRGGSTYYADSVKGRFTISRDNAKNTVYLQLNSLKPEDTAVYYCNKTTHSRTFRYDYWGQGTQVTVSS”, the “polyreactivity (PSR sort gate)” value is “low polyreactivity”.
For “QVQHVESGGGLVQAGGSLRLSCAASGRIFWDNASGWYRQAPGKVSELHAAISDSVVITYFADSVKGRFTISRDTAKYTVYLQMNSLKPEDTAFYYCAAHKRCTVYLSSFWMDYWGQGNQVTVSS” the value was “low polyreactivity”; for “QVQHVESGGGLVQAGGSLRLSCAASGRIFYAYTMGWYRQAPGKERELGAAISRSGSTYYADSVKGRFTISRDNAKNPVYLQMNSLKPEDTAVYYCAADVTGGRKYDYWGQGTQVTVSS”, “low polyreactivity”; for “QVQHVESGGGLVQAGGSLRLSCAASGRIIPGNAMGWYRQAPGKERDLVAAISYGGGSTYYADSVKGRFTISRDNAKNTVYLQMNSLKPEATAVYYCNAGWIRNYGFSIVTYDYWGQGTQVTVSS”, “low polyreactivity”.
Regarding “QVQHVESGGGLVQAGGSLRLSCAASGRTFFENAMGWYRQAPGKEMELVAAISWDGGTTYADSVKGRFSISRDNAKNTVYLQMNSLKPEDTAVYYCNAEVRSNDARGDNDYCGQGTQVTVSS”, the “polyreactivity (PSR sort gate)” value is given as “low polyreactivity”.
The value for “QVQHVESGGGLVQAGGSLRLSCAASGRTFGFNAMGWYRQATGKERELVAAITYSGGRTYYADSVKGRFTISRDNAKNTVYLHMNSLKPEDTAVYFCAALTRRVKKYDYLGQGTQVTVSS” was “high polyreactivity”; that for “QVQHVESGGGLVQAGGSLRLSCAASGRTFGYNDMGWSRQAHGKERELVATISWGGGSTYYADSVKWRFTISRDNAKNTVYLQMNSLKAEDTAVYYCNKVHFGRRHSYSGAIYGEDYWGLGTQVTVSS” was “high polyreactivity”; that for “QVQHVESGGGLVQAGGSLRLSCAASGRTFHWYAMGWYRQAPGKERELVAAIRYSAGSTYYADSVKGRFTISRDNAKNTVYLQMNSLKPEDTAVYYCAARPPYTDSSPGERTYDYWGQGTQVTVSS” was “low polyreactivity”.
As to “QVQHVESGGGLVQAGGSLRLSCAASGRTFITYAMGWYRQGPGKERELVATISGGGGTNYADSVKGRFTISRDNAKNTVYLQMNSLKPEDTAVYYCNKRAWYVYTHFDYWGLGTQVTVSS”, the “polyreactivity (PSR sort gate)” value is given as “low polyreactivity”.
As for “QVQHVESGGGLVQAGGSLRLSCAASGRTFKYNAMGWYRQAPGKEWELVAVIRYSGGTTYYADSVKGRFTISRDNAKNTVYLQMNSLKPEDTAVYYCAADSWSRSVNYYYWVQGTQVTVSS”, the “polyreactivity (PSR sort gate)” value is recorded as “low polyreactivity”.
For “QVQHVESGGGLVQAGGSLRLSCAASGRTFPAYAMGWYRQAPGKERELVAAITYDGGTTYYADSVKGRFTISRYNAKNTVYLQMNSLKPEDTAVYYCADVYDEDQYDYWGQGTQVTVSS” the value was “low polyreactivity”; for “QVQHVESGGGLVQAGGSLRLSCAASGRTFRRNAVGWYRQAPGNERELVATISRGGSTTYADSVKGRFTISRDKAKNTVYLQMNSLKPEDTAVYYCAARTSKRYSYADHDYWGQGTQVTVSS”, “low polyreactivity”; for “QVQHVESGGGLVQAGGSLRLSCAASGRTFTPYAMGWYRQAPGKEREFVAAISIVGRTKYADSVKGRFTISRDNAKNTVYLQMNSLKPEDTAVYYCNAQDSRDRKFYWGYTRGHWGQGTQVTVSS”, “low polyreactivity”.
The value for “QVQHVESGGGLVQAGGSLRLSCAASGSIFGQYAMGWDRQSPGKERELVAAISTSGGSTYYADSVKGRFTISRDNAKYSVYLQMYSLKPEDTAVYYCNAFNYGTQTYGYWGQGTQVTVSS” was “high polyreactivity”; that for “QVQHVESGGGLVQAGGSLRLSCAASGSIFTDYAMGWYRQAPGHDRELVAAITLGGNTNYADSVKGRFTISRDNAKHSVYLEMISLLREDTAVYDCATGGYYSAIVYGGYDVWGQGTQVTVSS” was “low polyreactivity”.
On to “QVQHVESGGGLVQAGGSLRLSCAASGSIFTGNAMGWYRQAPGKERELVAAISSSGGSTYYADSVKGRFTISRDNAKNTVYLQMNSLKPEDTAVYYCAAYNYFLQYDYWGQGTQVTVSS”, for which the “polyreactivity (PSR sort gate)” value was “low polyreactivity”.
The value for “QVQHVESGGGLVQAGGSLRLSCAASGSIFVYYAMGGYRQAPGKERELVAAISRSGGNTYYADSVKGRFTISRDNAKNTVYLQMNSLKPEDTAVYYCAAQPYVEGTKRYYWGQGTQVTVSS” was “high polyreactivity”.
For “QVQHVESGGGLVQAGGSLRLSCAASGSIFYIYAMGWYRQAPGKERELVASISRSGGSTYYADSVKGRFTISRDNAKNTVYLQMNSLKPEDTAVYYCAAVITFYRYPPGETYYYWGQGTQVTVSS” the value was “high polyreactivity”.
For “QVQHVESGGGLVQAGGSLRLSCAASGSILDIYAMGWYRQATGKERELVAAITGGGSTNYADSVNGRFTISRDNAKNTVYLLMNSLKPEDTAVYYCAAGTYLNGGGEYWGQGTQVTVSS” the value was “low polyreactivity”; for “QVQHVESGGGLVQAGGSLRLSCAASGSILPFNAMGWYRQAPGKVRELVAAIDGSGGDTYYADSVKGRFTISRDNAKNTVYLQMNSLKAEDTAVYYCAAEYYYTSQLAKYHYGYEYWGQGTQETVSS”, “high polyreactivity”.
In the case of “QVQHVESGGGLVQAGGSLRLSCAASGSTFGRYAMGWYRQAPGKERELVARISWGGGSTYYADSVKGRFTISRDNAKNTVYLQMNSLKPEDSAVYYCATRVYRSAVSYDYWGQGTQVTVSS”, the “polyreactivity (PSR sort gate)” value is “high polyreactivity”.
